According to IntAct's records for PubMed 31515488:

B1: Zinc finger protein with KRAB and SCAN domains 4 (Homo sapiens), Q969J2 (parent)
chain: MAREPRKNAALDAQSAEDQTGLLTVKVEKEEASALTAEVRAPCSPARGPERSRQRFRGFRYPEAAGPREALSRLRELCGQWLQPEMHSKEQILELLVLEQFLTILPGNLQSWVREQHPESGEEVVVLLEYLERQLDEPAPQVPVGDQGQELLCCKMALLTQTQGSQSSQCQPMKALFKHESLGSQPLHDRVLQVPGLAQGGCCREDAMVASRLTPGSQGLLKMEDVALTLTPGWTQLDSSQVNLYRDEKQENHSSLVSLGGEIQTKSRDLPPVKKLPEKEHGKICHLREDIAQIPTHAEAGEQEGRLQRKQKNAIGSRRHYCHECGKSFAQSSGLTKHRRIHTGEKPYECEDCGKTFIGSSALVIHQRVHTGEKPYECEECGKVFSHSSNLIKHQRTHTGEKPYECDDCGKTFSQSCSLLEHHKIHTGEKPYQCNMCGKAFRRNSHLLRHQRIHGDKNVQNPEHGESWESQGRTESQWENTEAPVSYKCNECERSFTRNRSLIEHQKIHTGEKPYQCDTCGKGFTRTSYLVQHQRSHVGKKTLSQ
B2: Keratin, type I cytoskeletal 40 (Homo sapiens), Q6A162 (parent)
chain: MTSDCSSTHCSPESCGTASGCAPASSCSVETACLPGTCATSRCQTPSFLSRSRGLTGCLLPCYFTGSCNSPCLVGNCAWCEDGVFTSNEKETMQFLNDRLASYLEKVRSLEETNAELESRIQEQCEQDIPMVCPDYQRYFNTIEDLQQKILCTKAENSRLAVQLDNCKLATDDFKSKYESELSLRQLLEADISSLHGILEELTLCKSDLEAHVESLKEDLLCLKKNHEEEVNLLREQLGDRLSVELDTAPTLDLNRVLDEMRCQCETVLANNRREAEEWLAVQTEELNQQQLSSAEQLQGCQMEILELKRTASALEIELQAQQSLTESLECTVAETEAQYSSQLAQIQCLIDNLENQLAEIRCDLERQNQEYQVLLDVKARLEGEINTYWGLLDSEDSRLSCSPCSTTCTSSNTCEPCSAYVICTVENCCL

Variants of: B1
Settings: with zsc32_human ZSCAN32, Q9NX65
Chain of zsc32_human ZSCAN32, Q9NX65 (Q9NX65 whole entry): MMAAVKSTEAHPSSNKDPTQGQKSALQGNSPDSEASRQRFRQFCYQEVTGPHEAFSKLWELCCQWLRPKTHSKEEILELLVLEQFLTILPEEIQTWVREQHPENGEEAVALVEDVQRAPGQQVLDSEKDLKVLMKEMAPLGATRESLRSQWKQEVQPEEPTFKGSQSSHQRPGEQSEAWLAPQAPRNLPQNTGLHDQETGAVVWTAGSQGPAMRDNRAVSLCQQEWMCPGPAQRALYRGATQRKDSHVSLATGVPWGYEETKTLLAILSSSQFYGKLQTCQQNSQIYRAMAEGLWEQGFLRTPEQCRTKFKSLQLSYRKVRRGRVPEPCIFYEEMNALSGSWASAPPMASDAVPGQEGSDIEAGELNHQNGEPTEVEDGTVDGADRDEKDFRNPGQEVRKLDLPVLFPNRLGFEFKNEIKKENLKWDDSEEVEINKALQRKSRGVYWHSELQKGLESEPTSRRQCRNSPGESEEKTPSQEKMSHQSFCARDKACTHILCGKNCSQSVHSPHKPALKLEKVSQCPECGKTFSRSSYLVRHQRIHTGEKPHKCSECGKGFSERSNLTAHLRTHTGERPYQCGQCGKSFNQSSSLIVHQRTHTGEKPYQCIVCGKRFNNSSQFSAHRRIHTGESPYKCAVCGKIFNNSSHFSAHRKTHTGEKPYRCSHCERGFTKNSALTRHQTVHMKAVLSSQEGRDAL

effect of a mutation on the interaction	Variant
with no effect	G79R

Variants of: B1
Settings: with zksc7_human ZKSCAN7, Q9P0L1
Chain of zksc7_human ZKSCAN7, Q9P0L1 (Q9P0L1 whole entry): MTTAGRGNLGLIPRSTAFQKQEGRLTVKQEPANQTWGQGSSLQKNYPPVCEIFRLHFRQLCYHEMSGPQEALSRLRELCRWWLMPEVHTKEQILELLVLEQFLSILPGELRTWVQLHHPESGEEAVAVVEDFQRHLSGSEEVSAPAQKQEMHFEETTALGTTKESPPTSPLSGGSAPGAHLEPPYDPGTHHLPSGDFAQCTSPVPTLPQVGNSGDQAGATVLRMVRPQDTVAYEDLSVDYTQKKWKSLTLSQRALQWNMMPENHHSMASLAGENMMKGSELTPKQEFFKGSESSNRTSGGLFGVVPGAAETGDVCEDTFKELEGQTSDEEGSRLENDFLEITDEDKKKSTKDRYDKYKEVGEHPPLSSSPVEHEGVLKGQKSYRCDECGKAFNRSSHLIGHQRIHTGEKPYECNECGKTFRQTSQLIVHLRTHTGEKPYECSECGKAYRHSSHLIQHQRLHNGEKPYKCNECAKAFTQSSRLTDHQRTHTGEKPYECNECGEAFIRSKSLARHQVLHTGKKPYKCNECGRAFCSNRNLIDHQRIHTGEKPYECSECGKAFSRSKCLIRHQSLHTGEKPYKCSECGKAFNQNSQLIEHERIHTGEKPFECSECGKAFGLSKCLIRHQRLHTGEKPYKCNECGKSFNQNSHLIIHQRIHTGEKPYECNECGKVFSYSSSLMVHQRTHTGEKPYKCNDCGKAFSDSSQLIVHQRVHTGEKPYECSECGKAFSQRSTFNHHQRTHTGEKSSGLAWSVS

effect of a mutation on the interaction	Variant
with no effect	G79R

Variants of: B1
Settings: with znf24_human ZNF24, P17028
Chain of znf24_human ZNF24, P17028 (P17028 whole entry): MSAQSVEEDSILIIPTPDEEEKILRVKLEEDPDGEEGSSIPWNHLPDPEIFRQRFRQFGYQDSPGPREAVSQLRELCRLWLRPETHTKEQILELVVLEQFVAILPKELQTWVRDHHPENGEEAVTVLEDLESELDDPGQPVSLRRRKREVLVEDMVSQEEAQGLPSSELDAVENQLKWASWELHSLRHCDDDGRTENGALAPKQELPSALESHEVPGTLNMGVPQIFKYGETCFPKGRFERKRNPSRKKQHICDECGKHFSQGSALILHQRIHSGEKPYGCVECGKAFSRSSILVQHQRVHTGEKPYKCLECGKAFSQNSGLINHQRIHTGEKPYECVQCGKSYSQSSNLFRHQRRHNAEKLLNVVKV

effect of a mutation on the interaction	Variant
disrupting interaction strength	G79R

Variants of: B1
Settings: with zn496_human ZNF496, Q96IT1
Chain of zn496_human ZNF496, Q96IT1 (Q96IT1 whole entry): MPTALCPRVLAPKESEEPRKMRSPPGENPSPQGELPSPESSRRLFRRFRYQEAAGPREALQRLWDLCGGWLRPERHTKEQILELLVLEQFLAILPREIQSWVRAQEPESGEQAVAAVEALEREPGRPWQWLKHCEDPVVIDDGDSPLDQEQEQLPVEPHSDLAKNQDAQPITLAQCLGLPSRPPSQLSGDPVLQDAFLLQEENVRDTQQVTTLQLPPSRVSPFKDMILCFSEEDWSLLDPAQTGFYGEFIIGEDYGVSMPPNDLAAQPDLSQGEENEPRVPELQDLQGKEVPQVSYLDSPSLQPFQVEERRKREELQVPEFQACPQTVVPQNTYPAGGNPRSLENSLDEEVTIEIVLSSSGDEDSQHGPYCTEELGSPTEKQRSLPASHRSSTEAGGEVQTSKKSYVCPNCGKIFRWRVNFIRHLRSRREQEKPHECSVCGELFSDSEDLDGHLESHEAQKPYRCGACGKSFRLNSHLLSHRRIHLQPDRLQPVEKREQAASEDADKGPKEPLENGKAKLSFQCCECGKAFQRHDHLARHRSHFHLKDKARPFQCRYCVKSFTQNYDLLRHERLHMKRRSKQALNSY

effect of a mutation on the interaction	Variant
with no effect	G79R

Variants of: B2
Settings: with wt1_human WT1, P19544
Chain of wt1_human WT1, P19544 (P19544 whole entry): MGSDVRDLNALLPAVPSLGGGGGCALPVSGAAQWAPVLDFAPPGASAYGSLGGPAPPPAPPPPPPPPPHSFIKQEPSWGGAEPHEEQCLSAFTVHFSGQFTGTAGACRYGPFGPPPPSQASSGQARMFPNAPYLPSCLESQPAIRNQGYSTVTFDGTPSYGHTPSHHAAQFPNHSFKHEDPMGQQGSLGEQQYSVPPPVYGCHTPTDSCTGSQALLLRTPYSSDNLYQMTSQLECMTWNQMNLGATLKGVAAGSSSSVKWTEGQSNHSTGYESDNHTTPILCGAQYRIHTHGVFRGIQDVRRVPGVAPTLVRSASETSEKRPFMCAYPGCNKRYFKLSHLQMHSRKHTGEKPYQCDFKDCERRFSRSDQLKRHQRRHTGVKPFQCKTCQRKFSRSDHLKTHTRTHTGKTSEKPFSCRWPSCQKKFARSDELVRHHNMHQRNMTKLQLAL

Variant	effect of a mutation on the interaction
C265Y	with no effect
C349R	with no effect
E286D	with no effect

Further lines, results first:

effect of a mutation on the interaction	Variant
with no effect	F85S
with no effect	W390R

Variants of: B2
Settings: with k2c4_human KRT4, P19013
Chain of k2c4_human KRT4, P19013 (P19013 whole entry): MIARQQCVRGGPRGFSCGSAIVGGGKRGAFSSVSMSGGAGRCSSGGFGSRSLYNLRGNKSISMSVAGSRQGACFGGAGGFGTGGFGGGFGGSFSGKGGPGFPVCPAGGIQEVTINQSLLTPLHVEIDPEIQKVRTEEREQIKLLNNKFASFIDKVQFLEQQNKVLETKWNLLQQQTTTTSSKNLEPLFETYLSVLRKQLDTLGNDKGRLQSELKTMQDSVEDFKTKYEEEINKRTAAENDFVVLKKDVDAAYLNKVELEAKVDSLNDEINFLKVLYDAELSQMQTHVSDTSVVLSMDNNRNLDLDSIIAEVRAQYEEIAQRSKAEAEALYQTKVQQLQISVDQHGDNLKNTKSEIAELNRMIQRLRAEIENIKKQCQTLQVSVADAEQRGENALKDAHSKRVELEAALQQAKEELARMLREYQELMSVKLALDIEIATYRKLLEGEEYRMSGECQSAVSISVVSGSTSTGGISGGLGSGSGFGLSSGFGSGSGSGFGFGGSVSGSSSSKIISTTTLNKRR

Variant	effect of a mutation on the interaction
C265Y	with no effect
C349R	with no effect
E286D	with no effect

Other lines, results leading:

effect of a mutation on the interaction	Variant
with no effect	F85S
with no effect	W390R

Variants of: B2
Settings: with mta1_human MTA1, Q13330
Chain of mta1_human MTA1, Q13330 (Q13330 whole entry): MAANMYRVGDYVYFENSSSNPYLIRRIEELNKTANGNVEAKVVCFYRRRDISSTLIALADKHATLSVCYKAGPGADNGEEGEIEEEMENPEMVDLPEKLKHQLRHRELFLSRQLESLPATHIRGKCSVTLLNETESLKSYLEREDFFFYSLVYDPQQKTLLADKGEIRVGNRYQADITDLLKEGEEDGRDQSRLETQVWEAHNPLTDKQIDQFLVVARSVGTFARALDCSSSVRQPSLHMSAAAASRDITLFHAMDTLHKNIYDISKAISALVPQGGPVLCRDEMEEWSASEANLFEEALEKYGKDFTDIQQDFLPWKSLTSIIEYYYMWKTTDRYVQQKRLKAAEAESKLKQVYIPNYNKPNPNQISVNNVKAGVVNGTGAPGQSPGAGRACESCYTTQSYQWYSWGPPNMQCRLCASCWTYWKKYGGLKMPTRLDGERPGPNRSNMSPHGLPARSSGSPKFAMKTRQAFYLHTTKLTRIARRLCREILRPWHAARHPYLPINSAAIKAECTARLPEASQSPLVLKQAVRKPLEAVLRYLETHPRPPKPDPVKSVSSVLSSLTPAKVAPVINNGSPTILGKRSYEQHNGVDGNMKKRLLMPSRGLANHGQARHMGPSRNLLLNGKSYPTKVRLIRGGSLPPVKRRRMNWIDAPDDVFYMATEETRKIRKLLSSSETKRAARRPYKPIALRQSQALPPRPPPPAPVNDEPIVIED

Variant	effect of a mutation on the interaction
C265Y	with no effect
C349R	with no effect
E286D	with no effect

Now from value to variant:

effect of a mutation on the interaction	Variant
with no effect	F85S
with no effect	W390R

Variants of: B2
Settings: with prs8_human PSMC5, P62195
Chain of prs8_human PSMC5, P62195 (P62195 whole entry): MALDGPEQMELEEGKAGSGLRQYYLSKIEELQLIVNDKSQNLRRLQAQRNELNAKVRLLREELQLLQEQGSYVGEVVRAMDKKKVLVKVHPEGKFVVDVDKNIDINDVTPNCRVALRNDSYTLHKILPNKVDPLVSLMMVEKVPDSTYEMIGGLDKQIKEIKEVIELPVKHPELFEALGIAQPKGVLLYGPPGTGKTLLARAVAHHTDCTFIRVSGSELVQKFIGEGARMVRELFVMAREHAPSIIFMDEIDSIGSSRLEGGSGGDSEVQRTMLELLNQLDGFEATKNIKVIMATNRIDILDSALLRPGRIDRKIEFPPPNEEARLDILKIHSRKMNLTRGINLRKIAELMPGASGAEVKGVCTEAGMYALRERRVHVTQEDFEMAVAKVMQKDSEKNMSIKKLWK

Variant	effect of a mutation on the interaction
C265Y	with no effect
C349R	with no effect
E286D	with no effect

Second part, the variant after the results:

effect of a mutation on the interaction	Variant
with no effect	F85S
with no effect	W390R

Variants of: B2
Settings: with snai1_human SNAI1, O95863
Chain of snai1_human SNAI1, O95863 (O95863 whole entry): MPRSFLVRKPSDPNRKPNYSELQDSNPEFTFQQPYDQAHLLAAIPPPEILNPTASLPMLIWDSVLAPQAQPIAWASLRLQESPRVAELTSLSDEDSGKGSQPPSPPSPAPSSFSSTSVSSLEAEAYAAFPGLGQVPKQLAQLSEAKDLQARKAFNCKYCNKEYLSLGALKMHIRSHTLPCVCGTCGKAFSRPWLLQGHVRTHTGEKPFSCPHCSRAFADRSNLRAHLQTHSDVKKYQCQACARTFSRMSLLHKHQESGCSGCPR

Variant	effect of a mutation on the interaction
C265Y	with no effect
C349R	with no effect
E286D	with no effect

The remaining lines, values ahead:

effect of a mutation on the interaction	Variant
with no effect	F85S
with no effect	W390R
